Legend:
[1] = target: Gαi3 transiently overexpressed in COS7 cells; assay: cAMP agarose precipitation from COS7 lysates after 15 min forskolin, immunoblot densitometry
[2] = target: Gαi of δOR-HEK293 cells (endogenous, receptor-activated); assay: cell-based or functional assay

fold enrichment of R:Gαi3 complexes (forskolin pre-treatment against basal conditions) [1] [fold] | sensitivity of the MAPK pathway (SNC80-mediated ERK1/2 phosphorylation) to stimulation by the δOR agonist [2] [fold] | Substance
3.8 |  | endogenous PKA regulatory subunits (R/Reg) of COS7 cells, bound to 2AHA-cAMP-coupled agarose beads
 | 7 | endogenous PKA regulatory subunits (R; RII/RegII) of δOR-HEK293 cells, cAMP-activated

Reference: patent publication US20150005237A1, “PEPTIDIC INHIBITOR OF SIGNAL TRANSMISSION FROM G-ALPHA-S TO G-ALPHA-I-COUPLED RECEPTOR CASCADES” (UNIVERSITÄT INNSBRUCK, priority 2011, published 2015)
